{"source": "the DeepSol protein solubility set"}
{"experiment": "soluble on expression in E. coli; label from the status in PepcDB or PDB records"}
{"sequence": "MNVDLHCHSTASDGALSPTALVARAHEYGVRVLSLTDHDTLEGLEEARTAAHSLGMQLVNGVELSCTWGGATIHVLGYGFDTQAPALTEAIARLHEGRWLRAEEISRKLAIKGMPGALEGARAIQQALGDSGNAPARPHFADFMVRAGFVKDRAEAFRKWLGAGKLGDVKQHWPTLEDTVATLRASGAWVSLAHPSHYDFTRSKRRKLVGDFVQAGGHAIEVVNGMQPADQVGTLAILAREFGLLVSAGSDFHGPGNWGEIGTYRPVPEDLPPLWCRFKHEQPTAAV", "soluble on expression in E. coli": "not soluble"}
{"sequence": "YHHSVVVGNLSEAACESIGENGLLARVGSYYHDLGKTRRPHFFIENQMKMENPHDRISPQLSATIIISHPYDGAKMLKEYKMPKEIIDIAEQHHGTSLLKYFYHKAQQESDQEVEETSFRYPGPKAQSKVAAIVGIADSVEA", "soluble on expression in E. coli": "soluble"}
{"sequence": "MSLTISLGYRALDVGRARAHALIDQLSARESVELLCEAFEVPRSCYYNHRLRRRNPDVERVRLRSRVNELFTQSRSAAGSRSIVLMMHEDGEQIGRFKVRSLMRELGLISKQPGSHAYRKATVERPDIPNILNRAFDVPAPNQVWCGDITYIWAQGKWHYLAVVMDLFARRVVGWALSSKPDTDLVIKALDMAYEQRGKPQGLLFHSDQGAQYGSRQFRQRLWRYRIRQSMSRRGNCWDNAPMERVFRSLKTEWIPTVGYMTAQEAQRDISHYLMHRYNWIRPHQFNNGLAPAQSEKRLNVVSGISEGHHHHHH", "soluble on expression in E. coli": "not soluble"}
{"sequence": "MIDWPLAELLPHAGDMILIDQVLAFDEEQIRTRLEVRPGGLFNRPDGSLPAWVGVELMAQSVAAYAGCRARQQGLPVELGFLLGTRKFECNVEHFPLGSTLEIHALRSLEDDNGMGVFECHLSGPGITASARLNVFRPPQAADYLHETPLEHHHHHH", "soluble on expression in E. coli": "not soluble"}
{"sequence": "MDITEKLRLITRNAEEVVTEEELRQLIETKEKPRAYVGYEPSGEIHLGHMMTVQKLMDLQEAGFEIIVLLADIHAYLNEKGTFEEIAEVADYNKKVFIALGLDESRAKFVLGSEYQLSRDYVLDVLKMARITTLNRARRSMDEVSRRKEDPMVSQMIYPLMQALDIAHLGVDLAVGGIDQRKIHMLARENLPRLGYSSPVCLHTPILVGLDGQKMSSSKGNYISVRDPPEEVERKIRKAYCPAGVVEENPILDIAKYHILPRFGKIVVERDAKFGGDVEYASFEELAEDFKSGQLHPLDLKIAVAKYLNMLLEDARKRLGVSV", "soluble on expression in E. coli": "soluble"}
{"sequence": "MKIEIKVQIKDGKNSPNLKPGGYIVSASKSFSIDYSKAVAITRNPEIYKNIGIPYIWISKVEGENAISPTNLPKLLHTMISLSKKHPGVTFIIDSVEYLALENGFESTFKFLISAKDHLMLNNSSLVLIIEDKAFKPNELALLKKEFKEISLEHHHHHH", "soluble on expression in E. coli": "soluble"}
{"sequence": "MVQQKIANLLQGDFRYQIQYNWVSLENISPNIQLAVISSEDQRFLEHLGFDFEAIQRAIRYNEKSNKGIRGASTISQQTAKNLMLWHGQNWLRKGLEVPATMLLELTWSKKRILEVYLNIAEFGNGIFGVEAASRYYFKKSAKNLSQNEAALLAAVLPNPIIYKVNKPSLLVRKKQTWILRQMGNLGTEYLSHL", "soluble on expression in E. coli": "not soluble"}
{"sequence": "MGSDKIHHHHHHMKYISPGDWFSLEYPMGWHEFEDTEESFLFYNPDRWTGNFRISAYKDEAADYGPQCIAYELKENTSSALVKVGKWDCAYSAETFQEEGAWYTTHIWVTGEGDLSFECSFTVSKGGDKHPAEEIIRSLQVRKEGVSHPREIIPIRVLEIGEVNTAFEWASTTIKKQLTKDFTASESDIDSIQQVMDSGRFQTQQRMAWENFGIAFGAILVNEMEGMEWVTVIEGQKEYPALQFMCSDMVLDPAALVWGKAKKGLPCDLKSEFRKIKREAEAVLDDLNK", "soluble on expression in E. coli": "not soluble"}
{"sequence": "MAHHHHHHMKEYLAQKEYRAKEYRAKDYPAKDYSGKKEYTSKKAYTPKKEYTAIRGCAVENAYFDEKAYTGCKANQGEEAHKNDASVVEGGKSKKNEERVLAGMIKILEEMKESDDASNAVDPGFN", "soluble on expression in E. coli": "not soluble"}
{"sequence": "MAHHHHHHMSTKYIIEHLDELEEWCIHEYIHICETVRDENVIFTKFCENFSELTNGKYKPACYEKSIDELKNELLSGNICLLDMKAKNKLTCNDKNKIDFLLFGGILGNVPSDDRTSILRNFNFPISRNLGPIQMTTNTAVLVCYIILNDNVELENIPYVDDPEIFLKNNKESITLPFRFVSKYYYTKCEQDKNVPVLPEKFKEYLIKLGDQQFDDMSSFLENEDN", "soluble on expression in E. coli": "not soluble"}
{"sequence": "MPSADVLIIGSGIAALRVAKEICHEKNVIIITKETNRNNNTHLAQGGIAAAVATYDNPNDHFEDTLVAGCRYNNEDVVRYLVEEGPKEMKNLIENGMQFDGDETGPHLGKEGAHRKRRILHAGGDATGKNLLEHFIQEVVPHVTVVEQEMVLDFIIESEKCVGVLTRNSEGKLKRYDADYTVLASGGVGGLYAFTSNDKTITGDGLAMVYRAGGELVDLEFVQFHPTMLYAGGQCCGLVSEAVRGEGAVLINGKGQRFMMDIHDDYDLAPRDVVARAIHEQLLSGEKVYLNIGSIQNFQERFPTVSALCKKNGVDITKKRIPVVPGAHFHMGGVKTNIDGETSIPNLYAVGEVACNGVHGANRLASNSLLEGLVFGKRIGQHILTKATKDKLNDFAEKEKKFIVLNHLPTKEEIQECMMKYVGIVRTEQSLSYAKRWLSKYGVRNMILQHDALTNEEITLINMLTVCELIVVSALQREESIGGHYRSDYPHRNSAQKEIIRVKRKLQLV", "soluble on expression in E. coli": "not soluble"}
{"sequence": "MEIANKRAWREYISYEIIRLQMHQILTLFLLALAASPSQAVTDRSCGSDLSRLWLDIVFVVDNSKNMNLYNVYNTISNLFNPFVQIGTGYDDPRSTRVGFITYNWNATDVADFYKLQSYSDLSSQIQALSVTPLSRADETYIDTGLQAAINMINATGGLRDNYKKVVVLFTSKYNYYHTYPEDLTDYLKSTGVTIITVNTGGDSYTTQSLRDKIASKGMAFAMSDGNTTAELQKAVLAINCFCRPGWMQYHYPLKSDNIYSNYGVCLYRPDSAMTKFAAQSYCHSLTTNGYLVSELDQQKRAFNWDYLNSKGITINAFYNGLTNYNGTWWWDQPSGQPLWPLNPNSGAPPQRSGCVVDMKYSDGSISWTPISCTSFFRFLCESVACDTDNYCEF", "soluble on expression in E. coli": "not soluble"}
{"sequence": "MGHHHHHHSHMRGRIYLEPPTMRKKRLLDRKVLLKSDSPTGDVLLDETLKHIKATEPTETVQTWIELLTGETWNPFKLQYQLRNVRERIAKNLVEKGILTTEKQNFLLFDMTTHPVTNTTEKQRLVKKLQDSVLERWVNDPQRMDKRTLALLVLAHSSDVLENVFSSLTDDKYDVAMNRAKDLVELDPEVEGTKPSATEMIWAVLAAFNKS", "soluble on expression in E. coli": "not soluble"}
{"sequence": "MKKYNIPVEATLEVIGGKWKVVILCHLTKGTKRTSELKRSMPGITQKMLTQQLRELEDDGVIQRKVYNQVPPKVEYSLTDYGWSLESILDSLCSWGECHLEKEGNTSMLIAEGE", "soluble on expression in E. coli": "not soluble"}
{"sequence": "MRKFIISFCCYVFFIFTLAAQDKAPHYTVIVSLDAFRWDYPAMYDTPNLNQMAREGVKATMLPSYPASTFPNHYTLATGLVPDHNGIINNTFWDVKRRRQYSMGDPATRNNPDYYLGEPIWITAQKQGVKTGNVYWVGSDIAIKGGYPTYYREYAEKPRLTFEQRVDSTIALLEKPEAERPRLVMLYFEEPDGVTHHHGPRSVEAAAIIHRMDSLVGMLRQGIASLPFGKDVNLIVTADHGMTEISDDRVVDMNKYLRPEWCEAVDGRTPTSIFTKPEYRDSVYNALKDVPHIHVWKKEEIPAELNYGSSDRIGDIVVAPELGWQFTDVPRALKGAHGYFPQSPDMQVMFRACGPDFKAGYESKGFVNVDIYPLLAHLLKITPEKTDGQFERIKDILKDVSFLEHHHHHH", "soluble on expression in E. coli": "not soluble"}
{"sequence": "MSFPLIFERSRKGRRGLKLVKAVPKAEDLIPKEHLREVPPRLPEVDELTLVRHYTGLSRRQVGVDTTFYPLGSCTMKYNPKLHEEAARLFADLHPYQDPRTAQGALRLMWELGEYLKALTGMDAITLEPAAGAHGELTGILIIRAYHEDRGEGRTRRVVLVPDSAHGSNPATASMAGYQVREIPSGPEGEVDLEALKRELGPHVAALMLTNPNTLGLFERRILEISRLCKEAGVQLYYDGANLNAIMGWARPGDMGFDVVHLNLHKTFTVPHGGGGPGSGPVGVKAHLAPYLPVPLVERGEEGFYLDFDRPKSIGRVRSFYGNFLALVRAWAYIRTLGLEGLKKAAALAVLNARYLKELLKEKGYRVPYDGPSMHEFVAQPPEGFRALDLAKGLLELGFHPPTVYFPLIVKEALMVEPTETEAKETLEAFAEAMGALLKKPKEWLENAPYSTPVRRLDELRANKHPKLTYFDEG", "soluble on expression in E. coli": "soluble"}
{"sequence": "MSLPHLSLADARNLHLAAQGLLNKPRRRASLEDIPATISRMSLLQIDTINIVARSPYLVLFSRLGNYPAQWLDESLARGELMEYWAHEACFMPRSDFRLIRHRMLAPEKMGWKYKDAWMQEHEAEIAQLIQHIHDKGPVRSADFEHPRKGASGWWEWKPHKRHLEGLFTAGKVMVIERRNFQRVYDLTHRVMPDWDDERDLVSQTEAEIIMLDNSARSLGIFREQWLADYYRLKRPALAAWREARAEQQQIIAVHVEKLGNLWLHADLLPLLERALAGKLTATHSAVLSPFDPVVWDRKRAEQLFDFSYRLECYTPAPKRQYGYFVLPLLHRGQLVGRMDAKMHRQTGILEVISLWLQEGIKPTTMLQKGLRQAITDFASWQQATRVTLGRCPQGLFTDCRTGWEIDPVA", "soluble on expression in E. coli": "not soluble"}
{"sequence": "MGSDKIHHHHHHMSLKEEQVSIKQDPEQEERQHDQFNDVQIKQESQDHDGVDSQYTNGTQNDDSERFEAAESDVKVEPGLGMGITSSQSEKGQVLPDQPEIKFIRRQINGYVGFANLPKQWHRRSIKNGFSFNLLCVGPDGIGKTTLMKTLFNNDDIEANLVKDYEEELANDQEEEEGQGEGHENQSQEQRHKVKIKSYESVIEENGVKLNLNVIDTEGFGDFLNNDQKSWDPIIKEIDSRFDQYLDAENKINRHSINDKRIHACLYFIEPTGHYLKPLDLKFMQSVYEKCNLIPVIAKSDILTDEEILSFKKTIMNQLIQSNIELFKPPIYSNDDAENSHLSERLFSSLPYAVIGSNDIVENYSGNQVRGRSYPWGVIEVDNDNHSDFNLLKNLLIKQFMEELKERTSKILYENYRSSKLAKLGIKQDNSVFKEFDPISKQLEEKTLHEAKLAKLEIEMKTVFQQKVSEKEKKLQKSETELFARHKEMKEKLTKQLKALEDKKKQLELSINSASPNVNHSPVPTKKKGFLR", "soluble on expression in E. coli": "not soluble"}
{"sequence": "MKSFDGHNDLLARLWLSEHPDPVGMFLKGQLPGHLDFARCQQAQFAGGLFAIFVPPFDYVKNNHPYKLRKSAQAGFDTQDIHHIVFTQLDYIKQIASRSDRRIQICLSVEDIQFCLQQDIMAVVIHLEGAEVLDSEFGVLEQLHARGLRSIGPLWNLPNQFGHGLQASFPHSPDTGLGLTDQGKALIQLCSEKRIMIDVSHMNEKAFWDTAKISELPLIATHSNVHQLCPQPRNLTDAQLEAIQASQGCVGVNFDTAFLRPDGQRNAATSLDLILEHIEYLMHKLGEDQVAFGSDFDGGFISDHLKDVTGLIHLQQAFERRGYSQALQEKLCHQNWLSALQRVWHPAC", "soluble on expression in E. coli": "not soluble"}
{"sequence": "MGSDKIHHHHHHMKVIIVDDDKAMFLILKKMLSKIHNVEVIGTFDRLSTTMEFLENNEVDLAFLDIKISGDNGIDLAKQIVNLKKQINIVFISSHKEFALDSFDVFPLDYIVKPVSQEKLERAIDRASKVIIKSGEEEYKAFIYCFGGLEVRGRNNESVKWISTKSMELFSYLVINSGRSISRGRVIKDIFEEMELKDVESYLNTIVYQLRKALSPLGLKKIITFDSQGYSFDFKDVYVDYIDFISGVESIKEINKDNIDRAKQLVYLYKGDLFDDKEYIWAVGEKEYASNLYSKFLGKVCSWYLENDLINDAYSMGKKLIQYNELDSEVNKIFMNILAARRDKISLNKHYERYAKVLFRELGVKVEDSVEELYRKLIKVLR", "soluble on expression in E. coli": "not soluble"}
{"sequence": "GPQMLSANERLKNNFNILYNQIRQYPAYYFKVASNVPTYSDICQSFSVMYQGFQIVNHSGDVFIHACRENPQSKGDFVGDKFHISIAREQVPLAFQILSGLLFSEDSPIDKWKITDMNRVSQQSRVGIGAQFTLYVKSDQECSQYSALLLHKIRQFIMCLESNLLRSKIAPGEYPASDVRPEDWKYVSYRNELRSDRDGSERQEQMLREEPFYRLMIE", "soluble on expression in E. coli": "soluble"}
